{"source": "paper PMC11141937", "about": "(2024)", "key": {"[1]": {"target": "SARS-CoV-2 WT (WH01) S protein on S-293T cells (SARS-CoV-2, UniProt P0DTC2)", "assay": "FACS"}, "WT S2": {"target": "WT S2", "assay": "ELISA"}, "WT NTD": {"target": "WT NTD", "assay": "ELISA"}, "[2]": {"target": "T1, SARS-CoV-2 WT (WH01) S protein ectodomain (SARS-CoV-2, UniProt P0DTC2 14-1213)", "assay": "BLI"}, "[3]": {"target": "RBD of SARS-CoV-2 WT S protein (SARS-CoV-2, UniProt P0DTC2)", "assay": "ELISA"}, "[4]": {"target": "S1 of SARS-CoV-2 WT S protein (SARS-CoV-2)", "assay": "ELISA"}, "[5]": {"target": "T1, SARS-CoV-2 WT (WH01) S protein …", "assay": "ELISA"}}}
{"binder": "O5C2 mAb (antibody, V domains shown) VH: EVQLVESGGGLIQPGGSLRLSCAASGIIVSRNYMSWVRQAPGKGLEWVSILYAGGSSFYAEPVQGRFTVSRDNSKNTLFLEMNSLRVEDTAVYYCARDLQWGIDIWGQGAMVTVSS VL: DIQMTQTPPSLSASVGDRVSISCRASQSTGSWLAWYQQKPGKAPKLLIYKTSSLESGVPSRFSGSGSGTEFTLTISSLQPDDVATYYCQHYDTYSSTFGQGTKVEIK", "values": [{"measurement": "EC50", "setting": "[1]", "result": 0.177, "unit": "nM"}, {"measurement": "EC50", "setting": "WT S2", "result": "> 1000", "unit": "nM"}, {"measurement": "EC50", "setting": "WT NTD", "result": "> 1000", "unit": "nM"}, {"measurement": "Kd", "setting": "[2]", "result": 0.865, "unit": "nM"}, {"measurement": "EC50", "setting": "[3]", "result": 0.018, "unit": "nM"}, {"measurement": "EC50", "setting": "[4]", "result": 0.017, "unit": "nM"}, {"measurement": "EC50", "setting": "[5]", "result": 0.024, "unit": "nM"}]}
